From PMC9365671, “Synergistic autoinhibition and activation mechanisms control kinesin-1 motor activity” (Cell reports, 2022) come the findings set out here.

The target in data set [1] is T1, KIF5B-Δhinge (Δ505-610)-mScarlet-StrepII (human, UniProt P33176 1-963, Δ505-610).
T1 construct: KIF5B, human, full length with aa 505-610 deleted (aa 1-504 joined to aa 611-963); also called delta-hinge mutant; delta-hinge KHC mutant; source: Sf9 (baculovirus), purified (Streptactin XT, SEC; the fractions that eluted like the wild type were used); not shown: mScarlet, C-terminal, kept
T1 sequence (looked up): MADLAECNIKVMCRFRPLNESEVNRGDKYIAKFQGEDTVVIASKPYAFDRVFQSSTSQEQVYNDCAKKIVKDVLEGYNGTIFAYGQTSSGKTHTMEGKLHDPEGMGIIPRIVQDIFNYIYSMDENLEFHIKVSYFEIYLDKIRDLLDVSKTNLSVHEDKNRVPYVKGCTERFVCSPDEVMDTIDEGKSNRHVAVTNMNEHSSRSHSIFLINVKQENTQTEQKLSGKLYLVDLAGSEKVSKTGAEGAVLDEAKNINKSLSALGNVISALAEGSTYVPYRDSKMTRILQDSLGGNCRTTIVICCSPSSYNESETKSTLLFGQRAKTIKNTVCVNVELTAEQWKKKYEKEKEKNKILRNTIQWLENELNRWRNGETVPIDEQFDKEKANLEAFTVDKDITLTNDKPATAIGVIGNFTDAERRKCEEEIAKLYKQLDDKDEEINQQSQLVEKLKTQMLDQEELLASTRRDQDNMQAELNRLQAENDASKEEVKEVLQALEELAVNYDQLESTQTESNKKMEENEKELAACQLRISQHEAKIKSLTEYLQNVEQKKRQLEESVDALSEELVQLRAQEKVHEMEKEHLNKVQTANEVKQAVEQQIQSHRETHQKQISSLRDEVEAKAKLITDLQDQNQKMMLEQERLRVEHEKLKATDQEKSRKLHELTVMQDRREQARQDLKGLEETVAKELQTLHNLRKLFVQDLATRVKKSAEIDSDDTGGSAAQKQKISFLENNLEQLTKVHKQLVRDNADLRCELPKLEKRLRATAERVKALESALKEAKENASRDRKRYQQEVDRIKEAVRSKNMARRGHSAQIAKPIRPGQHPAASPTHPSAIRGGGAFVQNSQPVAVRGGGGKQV
The experiment in a line: TIRF microscopy on microtubules; 40 nM KIF5B (wild type, mutants or K420B) on MTs with or without 200 nM recombinant KLC1, KLC1-CC or KLC1-TPR added in trans; ATP; relative fluorescence intensity on MTs. To be noted: both partners purified.

Data set [2] concerns the molecule itself. The experiment in a line: SEC-MALS; purified full-length KIF5 alone; BioSep SEC-s4000 column, GF150 buffer (25 mM HEPES-KOH, 150 mM KCl, 2 mM MgCl2). Background: In gel filtration, larger molecules generally elute earlier.

B1: 6xHis-2xStrepII-sfGFP-KLC1-CC (aa 1-200) (domain or fragment, human, UniProt Q07866 1-200, looked up)
chain: MYDNMSTMVYIKEDKLEKLTQDEIISKTKQVIQGLEALKNEHNSILQSLLETLKCLKKDDESNLVEEKSNMIRKSLEMLELGLSEAQVMMALSNHLNAVESEKQKLRAQVRRLCQENQWLRDELANTQQKLQKSEQSVAQLEEEKKHLEFMNQLKKYDDDISPSEDKDTDSTKEPLDDLFPNDEDDPGQGIQQQHSSAAA
notes: kinesin light chain 1, human, aa 1-200 (N-terminal coiled-coil part); also called N-terminal domain of the KLC; source: pET28a construct (E. coli BL21-CodonPlus (DE3)-RIPL), purified (Streptactin XT, SEC on Superdex 200)
Take B1: the binding result in data set [1] was “binds”.

B2: full-length human KIF5C-mScarlet-StrepII (natural protein, UniProt O60282 1-957, looked up)
chain: MADPAECSIKVMCRFRPLNEAEILRGDKFIPKFKGDETVVIGQGKPYVFDRVLPPNTTQEQVYNACAKQIVKDVLEGYNGTIFAYGQTSSGKTHTMEGKLHDPQLMGIIPRIAHDIFDHIYSMDENLEFHIKVSYFEIYLDKIRDLLDVSKTNLAVHEDKNRVPYVKGCTERFVSSPEEVMDVIDEGKANRHVAVTNMNEHSSRSHSIFLINIKQENVETEKKLSGKLYLVDLAGSEKVSKTGAEGAVLDEAKNINKSLSALGNVISALAEGTKTHVPYRDSKMTRILQDSLGGNCRTTIVICCSPSVFNEAETKSTLMFGQRAKTIKNTVSVNLELTAEEWKKKYEKEKEKNKTLKNVIQHLEMELNRWRNGEAVPEDEQISAKDQKNLEPCDNTPIIDNIAPVVAGISTEEKEKYDEEISSLYRQLDDKDDEINQQSQLAEKLKQQMLDQDELLASTRRDYEKIQEELTRLQIENEAAKDEVKEVLQALEELAVNYDQKSQEVEDKTRANEQLTDELAQKTTTLTTTQRELSQLQELSNHQKKRATEILNLLLKDLGEIGGIIGTNDVKTLADVNGVIEEEFTMARLYISKMKSEVKSLVNRSKQLESAQMDSNRKMNASERELAACQLLISQHEAKIKSLTDYMQNMEQKRRQLEESQDSLSEELAKLRAQEKMHEVSFQDKEKEHLTRLQDAEEMKKALEQQMESHREAHQKQLSRLRDEIEEKQKIIDEIRDLNQKLQLEQEKLSSDYNKLKIEDQEREMKLEKLLLLNDKREQAREDLKGLEETVSRELQTLHNLRKLFVQDLTTRVKKSVELDNDDGGGSAAQKQKISFLENNLEQLTKVHKQLVRDNADLRCELPKLEKRLRATAERVKALESALKEAKENAMRDRKRYQQEVDRIKEAVRAKNMARRAHSAQIAKPIRPGHYPASSPTAVHAIRGGGGSSSNSTHYQK
notes: kinesin heavy chain KIF5C, human, cDNA BC110287, full length; 2x Prescission protease sites lie between KIF5C and mScarlet; also called KHC; source: Sf9 (baculovirus), purified (Streptactin XT, SEC); also co-expressed with KLC1 and co-purified; not shown: mScarlet, C-terminal, kept
The term stoichiometry N denotes the number of molecules, sites or subunits per partner or assembly. Take B2: the “stoichiometry N” value in data set [2] is 2.
